Test results published in patent US5621079A, “Neuropeptide Y receptor” (Merck & Co., Inc., priority 1995, dated 1997).
pIC50: −log10 of the molar value.

Biological target: T1, murine NPY Yx receptor (Mus musculus, UniProt Q61212)
T1 construct: identified a 371 amino acid open reading frame; expressed in transfected cells; host or cells: COS-7 cells, transient (pcDNA3 vector pVE2863), membranes
T1 sequence (Q61212 1-371): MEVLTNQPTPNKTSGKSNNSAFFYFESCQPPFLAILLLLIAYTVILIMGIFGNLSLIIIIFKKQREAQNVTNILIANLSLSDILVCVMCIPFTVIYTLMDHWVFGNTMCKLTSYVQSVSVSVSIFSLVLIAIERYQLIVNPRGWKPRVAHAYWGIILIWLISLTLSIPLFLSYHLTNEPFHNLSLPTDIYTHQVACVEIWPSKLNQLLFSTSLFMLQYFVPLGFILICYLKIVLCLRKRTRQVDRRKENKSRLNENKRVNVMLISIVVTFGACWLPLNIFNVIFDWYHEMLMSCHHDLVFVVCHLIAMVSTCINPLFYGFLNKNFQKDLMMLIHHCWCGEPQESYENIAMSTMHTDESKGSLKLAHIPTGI
Assay: 125I-PYY competition binding to membranes of COS-7 cells transfected with the murine NPY Yx receptor
Settings: COS-7 membranes (50 μg protein), 125I-PYY 90 pM, 2 hours at room temperature; read-out: IC50 (concentration of peptide causing 50% inhibition of 125I-PYY binding)
Experimental: Using electroporation, COS-7 cells were transfected with the pcDNA3 expression vector containing the genomic DNA for the murine NPY Yx receptor (pVE2863). Two days post transfection, cells were dissociated with enzyme-free dissociation buffer, centrifuged at 1000 rpm for 10 minutes at 4° C., and resuspended in 10 mM Tris, pH 7.4 containing […] (phenylmethylsulfonyl fluoride), 10 μM phosphoramidon, and 40 μg/ml bacitracin. The cell suspension was homogenized with a glass homogenizer, and centrifuged at 2200 rpm for 10 minutes at 4° C. to remove cell debris. The plasma membrane fraction was recovered by centrifuging the supernatant at 18,000 rpm in a Sorvall SS-34 rotor for 15 minutes at 4° C. The membrane pellet was resuspended in the Tris/PMSF/phosphoramidon/bacitracin buffer by trituration 5 times using a 25 g needle and syringe. The membranes were stored frozen at -80° C. until use.
After 2 hours at room temperature, the incubation was filtered over GF/C filters, and the radioactivity bound to the filters was quantified with a Packard gamma counter.

Compared with NPY2-36 [NPY(2-36)], NPY13-36 [NPY(13-36)] is 0.93 log units lower in pIC50: 7.80 for the first, 6.87 for the second. The first is the more potent here.

Neuropeptide Y [NPY] and [Leu31, Pro34]NPY [[Leu^31, Pro^34]NPY] are within 0.2 log units of each other in pIC50: 8.22 for the first, 8.05 for the second.
